Measured values: patent US20220162327A1, “ANTI-CCR5 AGENTS AND METHODS OF TREATMENT THAT BLOCK CANCER METASTASIS OR ENHANCE CELL DEATH INDUCED BY DNA DAMAGING CHEMOTHERAPY” (CytoDyn Inc., priority 2019, published 2022)
Entries after “also recorded” stand apart in the source; their conditions may differ. Like-named read-outs stand apart in the source and are kept apart here.

Legend:
[1] = test system: breast cancer tumor model; assay: Breast cancer tumor model; type: in vivo
Source text: C-C Chemokine receptor type-5 (CCR5) is selectively reexpressed on the surface of tumor cells during the dedifferentiation and transformation process (velasco-velazquez-2012).
Another cancer hallmark that CCR5 presents a potential role is the DNA repair pathways. This cancer characteristic attenuates apoptosis and contributes to chemotherapy resistance and tumor cells immortality. Studies have correlated the altered expression of C-C Chemokine Ligand type-5 (CCL5) with disease progression in patients with breast cancer [Luboshits, 1999] [Niwa, 2001] [Zhang, 2009].

CCR5 [2] = molecular target: T1, CCR5 (Homo sapiens, UniProt P51681); assay: FACS binding of leronlimab to CCR5 in MDA-MB-231-CCR5 cells; design: expressed in transfected cells; host or cells: MDA-MB-231 human breast cancer cell line (MDA-MB-231-CCR5)
Source text: A previously tested commercial APC conjugated mouse anti-human/mouse/rat CCR5 antibody from R&D (FAB1802A) (APC-αCCR5) was used as a positive control to assess CCR5 positive cells.

HIV-1 = settings: at concentrations that do not affect CCR5 chemokine receptor activity in vitro; cited from earlier work
[3] = test system: MDA-MB-231 cells stable transfected with Luc2-GFP; assay: Mouse lung metastasis model, bioluminescence imaging; type: in vivo; settings: mice, tail-vein injection, treated one day before injection
Description: FIG. 4A and FIG. 4B. Leronlimab block breast cancer metastasis in mice. […] MDA-MB-231 cells stable transfected with Luc2-GFP was injected into the mice through tail-vein. The mice in each group were treated one day before injection. The metastasis tumor formed in the lung was determined by bioluminescence imaging. […] The quantitative analysis of tumor size in each group was shown in (FIG. 4B). The size of tumors defined by photon flux (x10^8 p/sec/cm^2/sr).

CCR5 [4] = molecular target: T1, CCR5; design: endogenous in cells; host or cells: CD4+ T cells; settings: cited from earlier work
CCR5 [5] = molecular target: T1, CCR5; assay: CCL5 induced calcium responses in MDA-MB-231-CCR5 cells (Fluo-4, living cell image); type: cell-based; design: expressed in transfected cells; host or cells: MDA-MB-231 human breast cancer cell line (MDA-MB-231-CCR5)
Source text: FIG. 2A, FIG. 2B, FIG. 2C, and FIG. 2D. […] CCR5 activation induces calcium flux (Mueller et al., 2002; Petkovic et al., 2004). […] Fluo-4 was used as calcium concentration indicator. The CCR5 antagonist, vicriviroc, was used as positive control (FIGS. 2A and 2D).

CCR5 [6] = molecular target: T1, CCR5; settings: CHO-K1 cells, cited from earlier work
[7] = test system: CCR5+ metastatic Triple Negative Breast Cancer; assay: Phase Ib/II study, CTC/EMT/CAML assessment in blood (LifeTrac Assay); type: in vivo, human
Source text: Each treatment cycle consisted of 21 days. […] This treatment regimen was used for all subjects enrolled in the mTNBC study, unless otherwise indicated.
The blood sample for circulating tumor cells (CTC) and cancer associated macrophage-like cells (CAMLs) assessment was collected at baseline and subsequently at Day 1 of each treatment cycle to assess changes in CTCs and CAMLs after treatment and to perform correlative analysis between CCR5 expression and PD-L1 expression.
Creatv Microtech has developed a size based technology and detection methodology (LifeTrac Assay) that enables the collection and characterization of all cancer associated cells in the blood i.e., CTCs, epithelial mesenchymal transition cells (EMTs) and CAMLs.[Adams Cytometry 2015, Adams RSC 2014]. The CellSieve™ filtration platform is used to capture CAMLs and CTCs.

[8] = Subject 706-001, C1D1, with carboplatin
[9] = Subject 706-001, C2D1, with carboplatin
[10] = Subject 706-001, C3D1, with carboplatin
[11] = Subject 706-001, C4D1, with carboplatin
[12] = Subject 706-001, C5D1, with carboplatin
[13] = Subject 706-001, C6D1, with carboplatin
[14] = second subject, after two weeks of treatment, with carboplatin

T1 sequence (P51681 whole entry): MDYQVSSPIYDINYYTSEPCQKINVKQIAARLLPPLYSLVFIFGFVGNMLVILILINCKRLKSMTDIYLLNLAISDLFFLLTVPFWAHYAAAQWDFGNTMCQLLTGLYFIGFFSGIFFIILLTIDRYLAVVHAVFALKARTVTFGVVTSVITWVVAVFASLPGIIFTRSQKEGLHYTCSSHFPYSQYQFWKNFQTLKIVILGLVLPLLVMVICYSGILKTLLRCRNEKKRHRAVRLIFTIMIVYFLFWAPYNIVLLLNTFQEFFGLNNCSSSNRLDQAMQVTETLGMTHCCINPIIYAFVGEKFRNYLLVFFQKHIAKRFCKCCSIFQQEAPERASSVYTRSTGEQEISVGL

B1: leronlimab: humanized monoclonal antibody to CCR5; humanized version of the murine mAb PA14 (antibody, chains of the INN, looked up, V domains shown)
VH: EVQLVESGGGLVKPGGSLRLSCAASGYTFSNYWIGWVRQAPGKGLEWIGDIYPGGNYIRNNEKFKDKTTLSADTSKNTAYLQMNSLKTEDTAVYYCGSSFGSNYVFAWFTYWGQGTLVTVSS
VL: DIVMTQSPLSLPVTPGEPASISCRSSQRLLSSYGHTYLHWYLQKPGQSPQLLIYEVSNRFSGVPDRFSGSGSGTDFTLKISRVEAEDVGVYYCSQSTHVPLTFGQGTKVEIK
tumor volume [1]: significant reduction in tumor volume
efficiency of binding to CCR5 positive cells (CCR5 [2]): 98%
efficiency of binding to CCR5 positive cells (CCR5 [2]; listed as PRO140): up to 98%
inhibition of HIV-1 entry and replication (HIV-1): potently inhibits HIV-1 entry and replication
breast cancer tumor metastasis to the lung [3]: blocks human breast cancer xenograft metastasis in mice; also recorded: dramatically decreased breast cancer tumor metastasis to the lung
effect on cAMP levels (CCR5 [4]; added to CD4+ T cells alone): does not affect cAMP levels
effect on cAMP levels (CCR5 [4]; administered with CCL5): diminishes the effect of CCL5 on cAMP levels
effect on CCL5 induced calcium responses (CCR5 [5]): can block CCL5 induced calcium responses
calcium response at calcium peak induce by CCL5 (CCR5 [5]; Fluo-4, control cells 1.23±0.10, P<0.001): 0.54±0.13
effect on CCL5 induced calcium responses (CCR5 [5]; listed as Leronlimab): abrogated CCL5 induced Ca^+2 flux
effect on chemotaxis (CCR5 [6]; administered with CCL5): reduces CCL5-induced chemotaxis
effect on chemotaxis (CCR5 [6]; alone): does not affect chemotaxis of CHO-K1 cells
CAML-Total [7, 8]: 1
CTC-Total [7, 8]: 0
EMT-Total [7, 8]: 2
Largest CAML, PD-L1 [7, 8]: 47 μm
Number of Apoptotic CTC, PD-L1 [7, 8]: 0
Number of Apoptotic CTCs, CCR5 [7, 8]: 0
Number of CAMLs, CCR5 [7, 8]: 0
Number of CAMLs, PD-L1 [7, 8]: 1
Number of CTCs, CCR5 [7, 8]: 0
Number of CTCs, PD-L1 [7, 8]: 0
Number of EMTs, CCR5 [7, 8]: 1
Number of EMTs, PD-L1 [7, 8]: 1
CAML-Total [7, 9]: 3
CTC-Total [7, 9]: 0
EMT-Total [7, 9]: 0
Largest CAML, CCR5 [7, 9]: 27 μm
Largest CAML, PD-L1 [7, 9]: 69 μm
Number of Apoptotic CTC, PD-L1 [7, 9]: 0
Number of Apoptotic CTCs, CCR5 [7, 9]: 0
Number of CAMLs, CCR5 [7, 9]: 1
Number of CAMLs, PD-L1 [7, 9]: 2
Number of CTCs, CCR5 [7, 9]: 0
Number of CTCs, PD-L1 [7, 9]: 0
Number of EMTs, CCR5 [7, 9]: 0
Number of EMTs, PD-L1 [7, 9]: 0
Largest CAML, CCR5 [7, 10]: 39 μm
Largest CAML, PD-L1 [7, 10]: 30 μm
Number of Apoptotic CTC, PD-L1 [7, 10]: 0
Number of Apoptotic CTCs, CCR5 [7, 10]: 0
Number of CAMLs, CCR5 [7, 10]: 3
Number of CAMLs, PD-L1 [7, 10]: 1
Number of CTCs, CCR5 [7, 10]: 0
Number of CTCs, PD-L1 [7, 10]: 0
Number of EMTs, CCR5 [7, 10]: 0
Number of EMTs, PD-L1 [7, 10]: 0
CAML-Total [7, 11]: 1
CTC-Total [7, 11]: 0
EMT-Total [7, 11]: 0
Largest CAML, CCR5 [7, 11]: 0 μm
Largest CAML, PD-L1 [7, 11]: 31 μm
Number of Apoptotic CTC, PD-L1 [7, 11]: 0
Number of Apoptotic CTCs, CCR5 [7, 11]: 0
Number of CAMLs, CCR5 [7, 11]: 0
Number of CAMLs, PD-L1 [7, 11]: 1
Number of CTCs, CCR5 [7, 11]: 0
Number of CTCs, PD-L1 [7, 11]: 0
Number of EMTs, CCR5 [7, 11]: 0
Number of EMTs, PD-L1 [7, 11]: 0
CAML-Total [7, 12]: 3
CTC-Total [7, 12]: 0
EMT-Total [7, 12]: 0
Largest CAML, CCR5 [7, 12]: 33 μm
Largest CAML, PD-L1 [7, 12]: 56 μm
Number of Apoptotic CTC, PD-L1 [7, 12]: 0
Number of Apoptotic CTCs, CCR5 [7, 12]: 0
Number of CAMLs, CCR5 [7, 12]: 1
Number of CAMLs, PD-L1 [7, 12]: 2
Number of CTCs, CCR5 [7, 12]: 0
Number of CTCs, PD-L1 [7, 12]: 0
Number of EMTs, CCR5 [7, 12]: 0
Number of EMTs, PD-L1 [7, 12]: 0
CAML-Total [7, 13]: 8
CTC-Total [7, 13]: 0
EMT-Total [7, 13]: 0
CCR5 expression on cancer-associated cells ([7]; first subject, after approximately 11 weeks of treatment): large reductions in CCR5 expression
circulating tumor cells (CTC) or putative metastatic tumor cells in the peripheral blood ([7]; first subject, following 16 weeks of treatment): no detectable circulating tumor cells (CTC) or putative metastatic tumor cells
levels of CTC [7, 14]: no detectable levels of CTC
reduction in EMT cells [7, 14]: 70%
CAML count ([7]; second subject, following at least two weeks of treatment, initial count 45): 30
decrease of total CTC+EMT counts ([7]; third subject, first two weeks of treatment, with carboplatin): 75%
